{"source": "patent US20260061042A1", "about": "“POLYNUCLEOTIDE COMPOSITIONS AND USES THEREOF” (Pfizer Inc., priority 2024, published 2026)", "molecules": {"B1": {"name": "BMD576_PapGLD WT_DAF-GPI: monovalent PapG modRNA LNP; RNA construct SEQ ID NO: 45 (nucleic acid)", "chain": "AGGAGGACUGGUCGAACCUGCAUAGUGAUCAUAAGGUCAGCAUAGCCACCAUGGAGACCGACACACUGCUGCUGUGGGUGCUUUUGUUGUGGGUGCCCGGUUCUACCGGAUGGAACAACAUCGUGUUCUACAGCCUGGGCAACGUGAACAGCUACCAAGGCGGCAACGUGGUGAUCACACAGAGACCUCAGUUCAUCACAAGCUGGAGACCCGGCAUCGCCACCGUGACCUGGAAUCAGUGCAACGGCCCCGAGUUCGCCGACGGCAGCUGGGCCUACUACAGAGAGUACAUCGCCUGGGUGGUGUUCCCCAAGAAGGUGAUGACCAAGAACGGCUACCCCCUGUUCAUCGAGGUGCACAACAAGGGCAGCUGGAGCGAGGAGAACACCGGCGACAGCGACAGCUACUUCUUCCUGAAGGGCUACAAGUGGGACGAGAGAGCCUUCGACGCCGGCAACCUGUGUCAGAAGCCCGGCGAGACCACAAGACUGACCGAGAAGUUCAACGACAUCAUCUUCAAGGUGGCCCUGCCCGCCGACCUGCCCCUGGGCGACUACAGCGUGACCAUCCCCUACACAAGCGGCAUUCAGAGACACUUCGCUAGCUACCUGGGCGCUAGAUUCAAGAUCCCCUACAACGUGGCCAAGACCCUGCCUAGAGAGAACGAGAUGCUGUUCCUGUUCAAGAACAUCGGCGGCAGUUCUGGUGGCGGUGGUUCAAGUGGUAGUGGCAGUUCAAGUGGGACAACACGACUGUUGAGCGGGCAUACGUGUUUUACGCUGACAGGUCUUCUGGGCACGCUGGUUACUAUGGGCUUGCUUACGUGAUGAGCUCGCUUUCUUGCUGUCCAAUUUCUAUUAAAGGUUCCUUUGUUCCCUAAGUCCAACUACUAAACUGGGGGAUAUUAUGAAGGGCCUUGAGCAUCUGGAUUCUGCCUAAUAAAAAACAUUUAUUUUCAUUGCAAAAAAAAAAAAAAAAAAAAAAAAAAAAAAAAAAAAAAAAAAAAAAAAAAAAAAAAAAAAAAAAAAAAAAAAAAAAAAAAAA", "modifications": "modRNA in LNP"}, "B2": {"name": "BMD576_PapG-DSF WT_DAF-GPI: monovalent PapG modRNA LNP; RNA construct SEQ ID NO: 65 (nucleic acid)", "chain": "AGGAGGACUGGUCGAACCUGCAUAGUGAUCAUAAGGUCAGCAUAGCCACCAUGGAGACCGACACCCUCCUGCUGUGGGUGCUGUUACUGUGGGUGCCCGGUAGCACCGGCUGGAACAACAUCGUGUUCUACAGCCUGGGCAACGUGAACAGCUACCAAGGCGGCAACGUGGUGAUCACACAGAGACCUCAGUUCAUCACAAGCUGGAGACCCGGCAUCGCCACCGUGACCUGGAAUCAGUGCAACGGCCCCGAGUUCGCCGACGGCAGCUGGGCCUACUACAGAGAGUACAUCGCCUGGGUGGUGUUCCCCAAGAAGGUGAUGACCAAGAACGGCUACCCCCUGUUCAUCGAGGUGCACAACAAGGGCAGCUGGAGCGAGGAGAACACCGGCGACAGCGACAGCUACUUCUUCCUGAAGGGCUACAAGUGGGACGAGAGAGCCUUCGACGCCGGCAACCUGUGUCAGAAGCCGGGGGAGACCACAAGACUUACCGAGAAGUUCAACGACAUCAUCUUCAAGGUGGCCCUGCCCGCCGACCUGCCCCUGGGCGACUACAGCGUGACCAUCCCCUACACAAGCGGCAUUCAGAGACACUUCGCUAGCUACCUGGGCGCUAGAUUCAAGAUCCCCUACAACGUGGCCAAGACCCUGCCUAGAGAGAACGAGAUGCUGUUCCUGUUCAAGAACAUCGGCGGCUGCAGACCUAGCGCUCAGAGCCUGGAGAUCAAGCACGGCGACCUGAGCAUCAACAGCGCCAACAACCACUACGCCGCUCAGACCCUGAGCGUGAGCUGCGACGUGCCCGCCAACAUCAGAUUCAUGCUGCUGAGAUCAACCACCCCCACCUACAGCCACGGCAAGAAGUUCAGCGUGGGCCUGGGCCACGGCUGGGACAGCAUCGUGAGCGUGAACGGCGUGGACACGGGCGAGACCACUAUGCGUUGGUACAAGGCCGGCACACAGAGCCUGACCAUCGGCAGCAGACUGUAUGGCGAAAGCUCCAAAAUCCAACCCGGCGUGCUGUCGGGGAGCGCCACCCUGCUGAUGAUACUGCCCGGAGGCAGCAGCGGCGGCGCCGACGUGCAGAUCAACAUCAGAGGCAACGUGUAUAUUCCGCCUAGCAGUGGUGGUGGGGGUAGCUCCGGCUCCGGAAGCAGCUGCGAGGGCAUCAGCCUGCUGGCUCAGAACACAAGCUGGCUGCUGCUGCUGCUGCUGAGCCUGAGCCUGCUGCAAGCCACCGACUUCAUGAGCCUGUGAUGAGCUCGCUUUCUUGCUGUCCAAUUUCUAUUAAAGGUUCCUUUGUUCCCUAAGUCCAACUACUAAACUGGGGGAUAUUAUGAAGGGCCUUGAGCAUCUGGAUUCUGCCUAAUAAAAAACAUUUAUUUUCAUUGCAAAAAAAAAAAAAAAAAAAAAAAAAAAAAAAAAAAAAAAAAAAAAAAAAAAAAAAAAAAAAAAAAAAAAAAAAAAAAAAAAA", "modifications": "modRNA in LNP"}, "B3": {"name": "BMD576_PapGLD K172A_DAF-GPI: monovalent PapG modRNA LNP; RNA construct SEQ ID NO: 52 (nucleic acid)", "chain": "B1 chain with A624G, A625C, G626C", "modifications": "modRNA in LNP"}}, "note": "Where a chain is given by its changes, count along the chain named."}
{"test_system": "E. coli strain CFT073 expressing the fimbrial adhesin PapG", "assay": "PapG hemagglutination inhibition (HAI) assay on sera of mice immunized with PapG modRNA LNPs", "type": "in vivo", "conditions": "1 μg, 50 μl IM, weeks 0, 4, bleed week 6, GMT of individual titers", "description": "(§1) Escherichia coli to the uroepithelium of human kidney. The PapG lectin binds to the globoside (GbO4) glycolipid, which is enriched in urinary tract tissue and consists of the tetrasacharide GalNAcβ1-3Galα1-4Galβ1-4Glc linked to ceramide. Here we present the use of a hemagglutination inhibition assay (HAI) to determine vaccine functional responses to protein subunit PapG or mRNA-expressed PapG antigens. In this assay the agglutination of human red blood cells (hRBCs) expressing GbO4 is caused by live E. coli CFT073 bacteria expressing PapG. The HAI assay measures the ability of PapG-elicited antibodies to prevent hRBC agglutination, exemplifying inhibition of the key bacterial adherence mechanism leading to clinical pyelonephritis. The assay was used to characterize the functional activity of PapG monoclonal antibodies (mAbs) raised against a PapG lectin domain subunit antigen. PapG HAI data from a mouse immunogenicity study are described that evaluated various 5 monovalent PapG modRNA LNPs and a PapG subunit comparator.\n(§2) In this mouse study immunogenicity of different PapG mRNA constructs were evaluated. […]\n(§3) iii. PapG Hemagglutination Inhibition Assay (HAI) 1. Preparation of Single Use Frozen E. coli CFT073 Banks Frozen bacterial stocks for use in the PapG HAI are stored at a concentration of ˜15 OD/mL. For stock preparation, take 6 ×100 μL of frozen parental strain CFT073 glycerol stock to seed six overnight cultures with ˜85 mL Luria's Broth (LB) each in 250 mL vented flasks. Flasks are shaken at 200 rpm and 37° C. overnight. On the same day, prepare 100 mL LB media with 30% glycerol and 0.4% sucrose by mixing […] 80% Glycerol with 0.8 mL 50% Sucrose in 64 mL LB and pre-chill at 4° C. After ˜16 h growth, determine the OD600 nm of each flask with the SpectraMax M5e plate reader by adding 100 μL culture to 900 μL LB (1:10 dilution). After reading the OD600, harvest cells by pelleting in a centrifuge at 4,000g, 4° C., for 30 minute. Determine the total OD of each of the six flasks, by multiplying the volume by OD/mL of each flask and divide by 15 OD to give the appropriate pellet resuspension volume. Discard supernatants and resuspend all pellets in the pre-chilled LB cryopreservant containing 30% glycerol and 0.4% sucrose, with a final volume as calculated above. Pool all resuspended pellets and mix gently, then aliquot into 1 mL/cryotube, and freeze at −70° C.\n(§4) 2. Preparing 10% hRBC Working Solution From Stock\n(§5) Gently mix human red blood cells (hRBC) bottle (Rockland) by rocking ˜20×times, pipet out 10 mL of the hRBCs into a 15 ml conical tube. Centrifuge at 2,000 rpm(˜990×g) for 10 minutes and 4° C. Aspirate and discard the supernatant, then resuspend the pellet with 9 mL 4° C. PBS. The packed hRBCs in 15 mL conical tube should constitute roughly 1 mL of this total volume. Store these 10% hRBCs at 4° C. until use. […]\n(§6) iv. PapG Hemagglutination Inhibition (HAI) Assay\n(§7) The PapG hemagglutination inhibition (HAI) assay uses human red blood cells (hRBCs), which naturally express the PapG ligand GbO4 (globotetraosyl ceramide) on the cell surface, and the E. coli strain CFT073 expressing the fimbrial adhesin PapG. Upon mixing bacteria with hRBCs, […] cells remain suspended (presenting as a cloudy well), while no binding results in the red blood cells falling out of solution towards the center of the well (observed as pellet).\n(§8) The total final well volume is 100 μL, with serum dilutions comprising 25 μL of this volume, strain CFT073 cells in […] volume, and hRBCs in a 50 μL volume. The assay plate is a V-bottom plate to which 25 μL 4° C. PBS is initially added to all wells. The positive control wells receive an additional 25 μL 4° C. PBS. The no-serum negative control consists of E. coli CFT073 cells plus hRBCs only (resulting agglutinated well appears cloudy). To accommodate pre-diluted sera transferred from the serum Master Dilution plate (MDP) an extra 5 μL 4° C. PBS is added to wells in Row A of the assay plate (columns 1 to 12). […]"}
{"molecule": "B1", "Step Titer GMT (HAI)": "94,822"}
{"molecule": "B2", "Step Titer GMT (HAI)": "89,753"}
{"molecule": "B3", "Step Titer GMT (HAI)": "98,165"}
{"test_system": "E. coli strain CFT073 expressing the fimbrial adhesin PapG", "assay": "PapG hemagglutination inhibition (HAI) assay on sera of mice immunized with PapG modRNA LNPs", "type": "in vivo", "conditions": "1 μg, 50 μl IM, weeks 0, 4, bleed week 6, serum pool", "description": "as §1, §2, §3, §4, §5, §6, §7, §8"}
{"molecule": "B1", "Step Titer Pool (HAI)": "81,000"}
{"molecule": "B2", "Step Titer Pool (HAI)": "81,000"}
{"molecule": "B3", "Step Titer Pool (HAI)": "81,000"}
